Literature values as cited in article PMC10674744.

Columns and labels:
[1] = target: SNUPN NES NES (Homo sapiens) (UniProt O95149)
[2] = target: Rev NES NES (Human immunodeficiency virus 1) (UniProt P04325)
[3] = target: STRAD NES NES (Homo sapiens) (UniProt Q7RTN6)
[4] = target: PKI NES NES (Homo sapiens) (UniProt P61925)

Substance: CRM1 (from UniProt O14980)
- Kd [1]: 12.5 µM
- Kd [2]: 1.18 µM
- Kd [3]: 10.3 µM
- Kd [4]: 0.034 µM
